According to US9089565B2, “Compositions and methods for causing neurite outgrowth” (MEDICAL RESEARCH COUNCIL, priority 2009, dated 2015):

T1: NgR1 (Homo sapiens, UniProt Q9BZR6, S281A)
T1 construct: The cDNAs of NgR1 (NM 023004, Nt. 184-1543); expressed in transfected cells; host or cells: COS7
T1 sequence (Q9BZR6 27-447 S281A): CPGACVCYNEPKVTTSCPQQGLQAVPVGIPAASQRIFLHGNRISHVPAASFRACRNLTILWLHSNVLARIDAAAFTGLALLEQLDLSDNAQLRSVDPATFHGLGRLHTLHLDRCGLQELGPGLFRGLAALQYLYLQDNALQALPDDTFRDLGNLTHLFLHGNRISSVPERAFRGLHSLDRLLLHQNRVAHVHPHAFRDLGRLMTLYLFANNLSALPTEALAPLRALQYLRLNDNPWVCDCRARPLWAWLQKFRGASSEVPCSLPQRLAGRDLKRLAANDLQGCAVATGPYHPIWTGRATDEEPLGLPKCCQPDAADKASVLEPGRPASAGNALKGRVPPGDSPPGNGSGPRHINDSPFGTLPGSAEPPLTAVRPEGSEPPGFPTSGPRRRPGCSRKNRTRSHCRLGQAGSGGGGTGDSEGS

B1: BDNF: brain-derived neurotrophic factor, member of the neurotrophin nerve growth factor family, purchased from Merck (protein, UniProt P23560 19-247, looked up)
Neurotrophic factor BDNF …: APMKEANIRGQGGLAYPGVRTHGTLESVNGPKAGSRGLTSLADTFEHVIEELLDEDQKVRPNEENNKDADLYTSRVMLSSQVPLEPPLLFLLEEYKNYLDAANMSMRVRRHSDPARRGELSVCDSISEWVTAADKKTAVDMSGGTVTVLEKVPVSKGQLKQYFYETKCNPMGYTKEGCRGIDKRHWNSQCRTTQSYVRALTMDSKKRIGWRFIRIDTSCVCTLTIKRGR

Legend:
NgR1 = molecular target: T1, NgR1; experiment: Binding of Nogo-66 fragment (Nogo-GFP) to COS7 cells over-expressing NgR1; settings: 281S/A mutant NgR1; pre-treatment 30 min (CK2 with ATP, or NEP1-40)
Protocol: FIG. 3. CK2 phosphorylates NgR1, and inhibits binding of the myelin-associated proteins to NgR1. (A) Myc-tagged wild type, 281S/A or 281S/D mutant NgR1 were over-expressed in COS7 cells. The over-expressed cells were incubated with either the combination of ATP and CK2, or NEP1-40 for 30 min at 37° C. After washing with PBS, cells were incubated with Hisx6-tagged Nogo-GFP for 3 hours at 4° C. The cells were fixed and immunofluorescence was performed with anti-Myc and anti-GFP antibodies. (B) COS7 cells over-expressing Myc-tagged wild type NgR1 were treated as described in (A). Proteins were extracted and the Myc-tagged NgR1 was immunoprecipitated with anti-Myc antibody. Co-precipitated Hisx6-tagged Nogo-GFP was detected by anti-GFP antibody. (C) Cell surface proteins in NgR1-overexpressing COS7 cells were labelled with biotin. The biotinylated proteins were fractionated and analysed by SDS-PAGE. Biotinylated NgR1-Myc was detected with anti-Myc. antibody. (D) COS7 cells over-expressing either wild type NgR1-Myc or 281S/A mutant NgR1-Myc were incubated with ã-^32P-ATP in the presence or absence of CK2. Myc-tagged proteins were immunoprecipitated and analysed with SDS-PAGE. Proteins were blotted onto a PVDF membrane and the membrane was exposed to X-ray film to detect incorporated ^32P. After autoradiography, the membrane was used for immunoblotting with anti-Myc antibody. (E and F) COS7 cells over-expressing Myc-tagged wild type, 281S/A or 281S/D mutant NgR1, were treated as described in (A). After washing with PBS, cells were incubated with either His-tagged OMgp (E) or HA-tagged MAG (F) for 3 hours at 4° C. […]
After treatment with or without CK2, COS7 cells over-expressing wild type or mutant NgR were incubated with Hisx6 tagged Nogo-GFP (10 μg/ml), HA-MAG (50 μg/ml) or Hisx6 tagged OMgp (10 μg/ml) in PBS for 3 hours at 4° C. […] Biotinylated proteins were precipitated with streptavidin beads and were analysed by SDS-PAGE. Each sample fractionated from 5×10^6 cells was analysed by SDS-PAGE. […]

Nogo-A, LINGO-1 = experiment: Immunoblotting of Nogo-A and LINGO-1 in RA-treated SH-SY5Y cells; assay type: cell-based, human; settings: after BDNF treatment 24 hours
Protocol: FIG. 1. BDNF promotes neurite outgrowth of RA-treated SH-SY5Y, and induces phosphorylation of NgR1. (A) SH-SY5Y cells were incubated with indicated reagents. Cell images were taken with phase contrast microscopy. (B) Number of cells extending neurite-like structures of more than 40 μm and total cell number were counted from images taken in (A). More than 300 cells were examined in each sample. The proportion of cells extending neurite-like structures of more than 40 μm was indicated as a percentage of total cell number. An average of three experiments is shown. Error bars indicate S. E. between experiments. Data were analysed with student's t test. (C) Whole cell extracts were prepared from RA-treated SH-SY5Y cells after incubation with or without BDNF for 24 hours, and were analysed by SDS-PAGE. Immunoblotting was performed with the indicated antibodies. (D) Whole cell extract prepared from cells treated with both RA and BDNF was incubated with the indicated reagents for 1 hour at 37° C. […] Whole cell extracts prepared from these cells were analysed by SDS-PAGE. […]
Cells were scraped off from dishes and washed with PBS twice, and then resuspended in PBS containing 0.1% Triton X100 and phosphatase inhibitor cocktail (Roche) and EDTA-free protease inhibitor cocktail (Roche). […] The supernatants containing 30 μg of proteins were analysed by SDS-PAGE and blotted to PVDF membrane. […]

Molecule	binding of the Nogo-66 fragment, immunofluorescence (NgR1)	Nogo-A and LINGO-1 protein levels (Nogo-A, LINGO-1)
NEP1-40: a competitive inhibitor of Nogo-66 binding to NgR1 (MEDLDQSPLVSSSDSPPRPQPAFKYQFVREPEDEEEEEEE; Nogo-66 residues 1-40; UniProt Q9NQC3 1-40, looked up, fragment) [reference compound]	inhibited binding	
B1		neither Nogo-A nor LINGO-1 showed significant changes
